Source: patent CN115746140A (SHENZHEN KANGTI BIOMEDICAL TECH CO LTD, dated 2023)

Molecular target: T1, PCSK9蛋白 (Proprotein convertase subtilisin kexin type 9) (UniProt Q8NBP7 31-692, limits assumed)
T1 construct: also called PCSK9抗原
Assay: SPR; immobilised partner and format not stated

T1 sequence (Q8NBP7 31-692 limits assumed): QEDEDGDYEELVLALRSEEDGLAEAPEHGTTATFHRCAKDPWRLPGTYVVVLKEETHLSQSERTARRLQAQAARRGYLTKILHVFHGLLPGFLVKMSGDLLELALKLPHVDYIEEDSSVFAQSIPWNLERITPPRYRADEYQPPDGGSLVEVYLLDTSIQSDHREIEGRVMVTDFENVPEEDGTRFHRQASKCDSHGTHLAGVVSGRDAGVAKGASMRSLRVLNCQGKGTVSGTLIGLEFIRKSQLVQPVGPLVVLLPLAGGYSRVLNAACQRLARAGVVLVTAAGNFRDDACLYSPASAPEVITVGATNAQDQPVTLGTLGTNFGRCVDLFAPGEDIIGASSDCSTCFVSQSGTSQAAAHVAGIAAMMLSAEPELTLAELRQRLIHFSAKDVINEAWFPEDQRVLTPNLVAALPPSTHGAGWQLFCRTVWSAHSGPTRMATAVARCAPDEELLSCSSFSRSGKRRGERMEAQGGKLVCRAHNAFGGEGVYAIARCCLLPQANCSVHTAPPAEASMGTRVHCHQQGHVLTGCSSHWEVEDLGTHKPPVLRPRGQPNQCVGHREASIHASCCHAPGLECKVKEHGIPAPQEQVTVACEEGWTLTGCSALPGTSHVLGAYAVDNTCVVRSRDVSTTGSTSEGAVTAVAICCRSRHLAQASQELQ

B1: 纳米抗体P2-11D (anti-PCSK9 nanobody P2-11D) (VHH)
VHH: DVQLQESGGGLVQPGGSLRLSCAASGFTFRAYDMGWYRQAPGKQRDLVAVISSSGGTPNYADSVKDRFTISRDNDKNTVYLQMNSLKSEDTALYYCNARWESSAYERDYWGRGTQVTVSS
notes: Monovalent alpaca VHH, expressed from pET22b in E. coli BL21 and purified on Ni resin and by size exclusion; also called 抗PCSK9单域重链抗体; 抗PCSK9的纳米抗体
Question: B1 was tested. Which Kd did it give?
Answer: 70 nM

Question: And the koff?
Answer: 0.00921 s⁻¹

Question: What about the kon of the same binder?
Answer: 130000 M⁻¹ s⁻¹
